Data as given in patent publication US20050069542A1 (Human Genome Sciences, published 2005).

T1: flag-tagged soluble TL3 (amino acids 105-251 of SEQ ID NO:234) (Homo sapiens (Human), UniProt O75888 105-250)
T1 construct: Heterologous flag-tagged control protein, immobilized in the ELISA; also called flagged tagged TL-3; not shown: Flag tag
T1 sequence: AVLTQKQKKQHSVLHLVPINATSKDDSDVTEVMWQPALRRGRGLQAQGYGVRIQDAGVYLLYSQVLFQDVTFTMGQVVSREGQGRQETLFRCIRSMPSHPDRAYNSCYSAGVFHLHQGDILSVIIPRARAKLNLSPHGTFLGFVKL


Each binder was assayed against T1, flag-tagged soluble TL3 (amino acids …) (assay: phage ELISA on immobilized flag-tagged soluble TL3).
How it was run: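 Phage displaying scFvs selected against flag-tagged GMAD were screened by ELISA against immobilized flag-tagged soluble TL3 (residues 105-251) as a heterologous flag-tagged counter-target, to check that binding is GMAD-specific.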

Binder | binding result
GMCC107 (scFv) scFv: QVQLVQSGAEVKKPGASVKVSCRTSGYTFTDHSMHWVRQAPGQRFEWMGWIGADSGSTQYSRNFQGRLTIGRDTSASTVYMELTSLRSEDTAVYYCARVGGGQGWYSGMDVWGRGTLVTVSSGGGGSGGGGSGGGGSAQAVLTQPSSVSGAPGQRVTISCTGSSSNIGASYDVHWYQQLPGTAPKLLIYNNNNRPSGVPDRFSGSRSGTSASLAITGLQAEDEADYYCHSYDSNLSGDVFGSGTKLTVLG | no binding
GMCC108 (scFv) scFv: EVQLVQSGAEVKEPGASVTVSCKASGYTFISYHMHWVRQAPGQGLEWMGIINPSGGDTTYAQKFQGRVTMTRDTSTSTVYMELRSLRFEDTARYYCARDLKFYDFRSGKYQDYGMDVWGQGTLVTVSSGGGGSGGGGSGGGGSAQSVLTQPPSLSVAPGQTASITCGGNDIGTKSVHWYQLKPGQAPVLVVYDNRDRPSGIPERFSGSNSGNTATLTISRVEGGDEADYYCQVWDSSIDHSEYVFGTGTKLTVLG | no binding
GMBC683 (scFv) scFv: EVQLVESGGGLVQPGRSLRLSCAASGFTFSSYGMHWVRQAPGKGLEWVAVISYDGSNKYYADSVKGRFTISRDNSKNTLYLQMNSLRAEDTAVYYCAKRAAAGTLDYWGQGTTVTVSSGGGGSGGGGSGGGGSSELTQDPAVSVALGQTVRITCQGDSLRSYYASWYQQKPGQAPVLVIYGKNNRPSGIPDRFSGSSSGNTASLTITGAQAEDEADYYCNSRDSSGNHVVFGGGTKLTVLG | no binding
GMCC101 (scFv) scFv: EVQLVQSGAEVKKPGSSVKVSCKASGGTFRTYAITWVRQAPGQGLEWMGGIIPISATANYAQKFQGRVTITADESMSTAYMELSSLRSEDTAVYYCARDREPHYFDNWGRGTMVTVSSGGGGSGGGGSGGGGSALPVLTQPPSVSEAPRQGVTISCSGSSSNIGNNAVSWYQQLPGQAPKLLIYYDDLLPSGVSDRFSASKSGTSASLAISGLQSEDEADYYCAAWDDSLNGVIFGGGTQLTVLS | no binding
GMBC691 (scFv) scFv: EVQLVQSGAEVKKPGASMKVSCKTSGDTFNGFYVHWVRQAPGQGLEWMGRINPNGGGTNYAQKFQGRVTMTRDTSMNTAYMELRSLRSDDTAVYYCARDLFYDFWSDYYRNDQYYYMDVWGRGTLVTVSSGGGGSGGGGSGGGGSSELTQDPAVSVALGQTVRITCQGDSLRSYYASWYQQKPGQAPVLVIYGKNNRPSGIPDRFSGSSSGNTASLTITGAQAEDEADYYCNSRDSSGNHVVFGGGTKLTVLG | no binding
GMBC678 (scFv) scFv: EVQLVESGGGLVKPGGSLRLSCAASGFTFSDAWMNWVRQAPGKGLEWVGRIKSKGSGGTIDYAAPVKDRFTISRDDSKNTLYLQMNSLKTEDTALYYCTWDWDFYYGMNVWGQGTLVTVSSGGGGSGGGGSGGGGSQSVLTQPPSASGSPGQSVTISCTGTSSDVGGYNYVSWYQQHPGKAPKFMIYDVSKRPSGVSNRFSGSKSGNTASLTISGVQAEDEADYYCSSYTSASTVIFGGGTKLTVLG | no binding
GMBC689 (scFv) scFv: QVQLVESGGGLVKPGGSLRLSCAASGFTFSDAWMNWVRQAPGKGLEWVGRIKSKGSGGTIDYAAPVKDRFTISRDDSKNTLYLQMNSLKTEDTALYYCTWDWDFYYGMNVWGQGTLVTVSSGGGGSGGGGSGGGGSQSVLTQPPSASGSPGQSVTISCTGTSSDVGGYNYVSWYQQHPGKAPKFMIYDVSKRPSGVSNRFSGSKSGNTASLTISGVQAEDEADYYCSSYTSASTVVFGGGTKLTVLG | no binding
GMCC118 (scFv) scFv: EVQLVQSGGGLVKPGGSLRLSCTASGFSFTNAWMSWVRQAPGKGLEWVGRIKSRNDGGATDYAAPVKGRFTISRDDSKNTLYLQMNSLKTDDTAVYYCTTDNFPLRFLEWLSHPDYWGQGTMVTVSSGGGGSGGGGSGGGGSAQAVLTQPSSVSVSPGQTVTITCSGEKLDNKYISWYQQRPGRSPILVIYQDRKRPSGIPERFSGSNSGNTATLTITGSQPLDEADYYCQAWDSSTAWEFGGGTKLTVLG | no binding
GMCC105 (scFv) scFv: QVQLVQSGGGVVQPGRSLRLSCTASGFNLGSHGMHWVRQAPGKGLEWVAVIGFDGTTKYYVDSVKGRFTISRDNSRNTLSLQMNSLRAEDTAVYYCVREDYYYDSSGYYFDYWGRGTLVTVSSGGGGSGGGGSGGGGSALSSELTQDPFVSVALGQTVRIACRGDSLRDSYASWYQQKPGQAPRLLVYGNNLRPSGIPGRFSGSSSGDTASLSITETQAGDEADYYCSSRGNSTSRLYVFGTGTKLTVLG | no binding
GMBC687 (scFv) scFv: QVQLVQSGAEVKKPGSSVKVSCKAPGDTFSNYIFNWVRQAPGQGLEWMGGIIPKFGTVNDAHKFQDRVTIAADESTNTASMELSSLTSEDTAVYYCACEPIPKDYGDVNGLEIWGKGTMVTVSSGGGGSGGGGSGGGGSDIQMTQSPSTLSASIGDRVTITCRASEGIYHWLAWYQQKPGKAPKLLIYKASSLASGAPSRFSGSGSGTDFTLTISSLQPDDFATYYCQQYSNYPLTFGGGTKLEIKR | no binding
GMCC110 (scFv) scFv: QVQLQESGPGLVKPSQTLSLTCTVSGASISSGGYRWIWIRQHPGQGLEWIGDIHYSGSTQYNPSLKSRVALTLDRSKNQFSLQLSSVTAADTAVYYCARDPRGHTYGYGYYFDYWGKGTLVTVSSGGGGSGGGGSGGGGSALSSELTQDPDVSVALGQTVTITCQGDRLRRYYASWYQQKPGQAPVLVIFRKNNRPSGIPDRFSGSSSGDTASLTITGAQAEDEADYYCNSRDTSGTLSFGGGTQLTVLS | no binding
GMBC696 (scFv) scFv: EVQLVQSRAEVKKPGASVKVSCKTSGYTFNGYYIHWVRQAPGQGLEWMGWIDPINSVTNYAQNFQGRVTMTRDTSINTAYMELSRLTSDDTAVYYCARARVSTILQYWGQGTLVTVSSGGGGSGGGGSGGGGSSELTQDPAVSVALGQTVRITCQGDSLRSYYASWYQQKPGQAPVLVIYGKNNRPSGIPDRFSGSSSGNTASLTITGAQAEDEADYYCNSRDSSGNHVVFGGGTKLTVLG | no binding

Now from value to binder:

binding result | Binder
no binding | GMBC730 (scFv) scFv: QVQLVESGGDSVKPGGSLRLSCAGSGFTFSDAWMNWVRQAPGKGLEWVGRMKSKGSGGTRDYAAPVNGRFTISRDDSKNTLYLQMNSLNTEDTGVYYCTWDWDFYYGMDVWGKGTTVTVSSGGGGSGGGGSGGGGSQSVLTQPASVSGSPGQSITISCTGTSSDVGGYNYVSWYQQHPGKAPKLMIYEGSKRPSGVSNRFSGSKSGNTASLTISGLQAEDEADYYCSSYTTRSTRVFGGGTKLTVLG
no binding | GMCC114 (scFv) scFv: EVQLVESGPEVKKPGSSVKVSCKASGAAAFSSYAISWVRQAPGRGLEWMGGIIPISDTPKYAHKFQGRVTITADESTTTVFMEVSGLRSDDTAVYYCATTTRYGSGTYDYMDVWGQGTMVTVSSGGGGSGGGGSGGGGSALSSELTQDPAVSVALGQTVRITCQGDSLRSYYASWYQQKPGQAPVLVFYGKNKRPSGIPDRFSGSTSGNTASLSITGALADDEADYYCHSRDTSGAQILFGGGTKLTVLG
no binding | GMBC608 (scFv) scFv: EVQLVQSGGGLVQPGRSLRLSCAASGFTFSDSYMTWIRQAPGEGLEFVSYISSGSSTTYYTDSVKGRFTISRDNSKNTLYLQMNSLRPEDTAVYYCARRSISSDYYSYYLDVWGKGTLVTVSSGGGGSGGGGSGGGGSSELTQDPAVSVALGQTVRITCQGDSLRSYYASWYQQKPGQAPVLVIYGKNNRPSGIPDRFSGSSSGNTASLTITGAQAEDEADYYCNSRDSSGNHVVFGGGTKLTVLG
no binding | GMCC106 (scFv) scFv: QVQLQESGPGLVKPSGTLSLTCAVSVGSINESNWWSWVRQSPGKGLEWIGEIYPTGTTNYNPSLESRVTISVDKSRNLFSLKLKSVTAADSAMYFCARDRWAGGFDLWGRGTMVTVSSGGGGSGGGGSGGGGSAQSVLTQPPSASGTPGQRVTISCSGSSSNIGSNSVYWYQQLPGTAPKLLIYRNNQRPSGVPDRFSASKSGTSASLAISGLRSEDEADYYCAAWDDSLSGLVFGGGTKLTVLG
no binding | GMBC610 (scFv) scFv: QVTLKESGAEVKKPGASVKVSCKTSGFTFGAYYIHWVRQVPGQGLEWMGWIDPNNGGTNYAQKFQGRVTMTRDMSTTTTYMEVSGLHSDDTAVYYCARARVATILEYWGRGTLVTVSSGGGGSGGGGSGGGGSPELTQDPAVSVALGQTVRITCQGDSLRSYYASWYQQKPGQAPVLVIYGKNNRPSGIPDRFSGSSSGNTASLTITGAQAEDEADYYCNSRDSSGNHVVFGGGTKLTVLG
no binding | GMBC681 (scFv) scFv: QVQLVQSGGGVVQPGGSLRLSCAASGFTFSSYGMHWVRQAPGKGLEWVAFIRYDGSNKYYADSVKGRFTISRDNSKNTLYLQMNSLRAEDTAVYYCAKGGTGYFDLWGRGTLVTVSSGGGGSGGGGSGGGGSDIQMTQSPSTLSASIGDRVTITCRASEGIYHWLAWYQQKPGKAPKLLIYKASSLASGAPSRFSGSGSGTDFTLTISSLQPDDFATYYCQQYSNYPLTFGGGTKLEIKR
no binding | GMCC112 (scFv) scFv: QVQLVQSGGGLVQPGGSLRLSCAASGFSFSTYAMSWVRQAPGKGLEWVSGVSDGGDTFYADSVRGRFTLSRDNAKNTLFLQMNSLTAEDTATYYCAKEIARIGVPNFDHWGQGTLVTVSSGGGGSGGGGSGGGGSALETTLTQSPGTLSLSPGDRATLSCRASQSIRNNDVAWYQQKPGQAPRLLIYSASRRATDIPDRFSGSASGTDFTLTISRLEPEDFAMYYCQQYGGSASFGQGTRLEIKR
